In the Human Domainome abundance scans (Beltran et al. 2025):
± gives the uncertainty stated by the source.

B1: Intersectin-2, residues 1129 to 1183; numbered along this chain, Q9NZM3 (parent)
chain: VCQVIAMYDYAANNEDELSFSKGQLINVMNKDDPDWWQGEINGVTGLFPSNYVKM

Variants of: B1
Test: abundance fitness (aPCA) (normalised: wild type 0, dead -1); higher = more abundant; growth selection in yeast, the domain comes from the species named
Conditions: Homo sapiens

Abundance fitness: each site, then its substitutions
K31: H -0.148 ± 0.059, V 0.22 ± 0.039, T 0.102 ± 0.032, W -0.138 ± 0.046, F -0.039 ± 0.058, A 0.173 ± 0.033, D -0.044 ± 0.045, Y -0.103 ± 0.06, G -0.031 ± 0.037, C 0.138 ± 0.041, I 0.029 ± 0.058, R -0.061 ± 0.041, Q -0.039 ± 0.066, E 0.006 ± 0.051
M29: A -0.016 ± 0.036, V -0.001 ± 0.033, I -0.036 ± 0.061, W -0.053 ± 0.032, D -0.077 ± 0.056, Q -0.125 ± 0.063, S -0.039 ± 0.028, L -0.013 ± 0.04, R -0.014 ± 0.032, P -0.496 ± 0.068, T 0.014 ± 0.045, Y -0.18 ± 0.089, C -0.022 ± 0.039, H -0.06 ± 0.07, K -0.075 ± 0.065, G -0.065 ± 0.032, N -0.187 ± 0.075, E -0.006 ± 0.038
E40: D -0.045 ± 0.046, S 0.003 ± 0.036, F -0.142 ± 0.056, R -0.059 ± 0.04, M -0.08 ± 0.058, K -0.037 ± 0.06, W -0.15 ± 0.05, Y -0.176 ± 0.06, C -0.037 ± 0.044, A -0.055 ± 0.031, N -0.143 ± 0.063, P -0.963 ± 0.14, Q -0.114 ± 0.049, H -0.08 ± 0.052, G -0.157 ± 0.036
V44: G 0.001 ± 0.039, Q -0.083 ± 0.066, K -0.056 ± 0.05, I 0.027 ± 0.051, M -0.169 ± 0.061, Y -0.101 ± 0.057, E -0.108 ± 0.062, C -0.023 ± 0.045, S -0.046 ± 0.034, A -0.006 ± 0.043, D -0.117 ± 0.062, R -0.055 ± 0.034, L -0.033 ± 0.041, F -0.098 ± 0.045, N -0.049 ± 0.046, P -0.438 ± 0.054, H 0.028 ± 0.058, W -0.151 ± 0.049, T -0.052 ± 0.053
N30: G -0.04 ± 0.045, Y -0.117 ± 0.058, S -0.028 ± 0.029, W -0.16 ± 0.05, V -0.045 ± 0.038, D -0.087 ± 0.052, A -0.002 ± 0.037, R -0.019 ± 0.034, C 0.005 ± 0.041, F -0.09 ± 0.047, I -0.135 ± 0.057, M -0.025 ± 0.034, L -0.021 ± 0.032, P -0.688 ± 0.058, Q 0.019 ± 0.054, K -0.001 ± 0.048, E -0.046 ± 0.04, T -0.034 ± 0.033, H -0.01 ± 0.054
V28: L -0.048 ± 0.046, C -0.077 ± 0.063, S -0.94 ± 0.068, W -0.963 ± 0.15, I 0.006 ± 0.05, E -0.996 ± 0.15, P -0.882 ± 0.053, Q -1.04 ± 0.24, G -0.937 ± 0.058, R -0.718 ± 0.056, Y -0.87 ± 0.39, F -0.778 ± 0.07, N -1.01 ± 0.15, A -0.371 ± 0.044, M -0.155 ± 0.06, K -1.04 ± 0.23
G43: V -0.765 ± 0.045, K 0.029 ± 0.04, Q -0.202 ± 0.067, H -0.025 ± 0.058, L -0.175 ± 0.034, A -0.044 ± 0.03, E -0.032 ± 0.037, P -0.908 ± 0.075, Y -0.237 ± 0.068, M -0.08 ± 0.041, T -0.128 ± 0.044, R -0.069 ± 0.036, S -0.024 ± 0.033, W -0.404 ± 0.067, I -0.865 ± 0.1, D -0.044 ± 0.045
P34: A 0.005 ± 0.04, R -0.018 ± 0.043, W -0.161 ± 0.061, D -0.01 ± 0.062, L -0.079 ± 0.03, Y -0.147 ± 0.042, H -0.194 ± 0.07, T -0.009 ± 0.034, N 0.036 ± 0.055, K 0.055 ± 0.046, G -0.028 ± 0.04, M -0.015 ± 0.056, C -0.195 ± 0.063, Q 0.029 ± 0.063, V -0.033 ± 0.038, S -0.013 ± 0.042, E 0.03 ± 0.058, I -0.071 ± 0.038
D33: F -0.24 ± 0.058, L -0.077 ± 0.044, G -0.043 ± 0.033, S -0.037 ± 0.043, A -0.065 ± 0.045, C 0.042 ± 0.06, R -0.015 ± 0.028, V -0.092 ± 0.038, N -0.034 ± 0.039, E -0.009 ± 0.047, I -0.112 ± 0.069, W -0.237 ± 0.049, M -0.12 ± 0.046, T -0.023 ± 0.034, P -0.287 ± 0.064, H 0.103 ± 0.067
D32: K -0.007 ± 0.055, C -0.089 ± 0.043, W -0.086 ± 0.053, A -0.042 ± 0.038, S -0.063 ± 0.031, P 0.084 ± 0.054, F -0.205 ± 0.05, M -0.043 ± 0.054, Q 0.046 ± 0.061, N 0.021 ± 0.047, L -0.11 ± 0.035, R -0.049 ± 0.041, T -0.075 ± 0.038, Y -0.077 ± 0.052, H -0.18 ± 0.06
D35: V -0.04 ± 0.033, H -0.048 ± 0.05, S -0.035 ± 0.031, R -0.021 ± 0.031, L -0.029 ± 0.035, P -0.39 ± 0.038, K -0.071 ± 0.062, F -0.085 ± 0.069, Q -0.099 ± 0.055, I 0.03 ± 0.061, C -0.167 ± 0.069, N -0.032 ± 0.043, Y -0.075 ± 0.042, M -0.1 ± 0.043, W -0.145 ± 0.045
T45: I -0.103 ± 0.045, E -0.053 ± 0.038, C -0.087 ± 0.056, F -0.051 ± 0.071, D -0.1 ± 0.056, A -0.044 ± 0.028, G -0.042 ± 0.045
N27: F -0.112 ± 0.045, L -0.07 ± 0.029, I -0.015 ± 0.06, T -0.043 ± 0.055, H -0.089 ± 0.053, M -0.02 ± 0.05, P -0.351 ± 0.06, E 0.039 ± 0.054, K -0.052 ± 0.035, V -0.098 ± 0.043, Q 0.012 ± 0.051, Y -0.081 ± 0.039, R -0.037 ± 0.031, G -0.122 ± 0.036, W -0.123 ± 0.055, S -0.05 ± 0.037, C -0.046 ± 0.03
G39: Y -0.878 ± 0.24, W -1.18 ± 0.22, C -0.995 ± 0.12, F -0.854 ± 0.29, V -1.02 ± 0.079, N -0.831 ± 0.18, P -0.864 ± 0.12, T -0.89 ± 0.11, R -1.06 ± 0.073, I -0.942 ± 0.14, Q -0.992 ± 0.21, D -0.726 ± 0.099, A -0.699 ± 0.06, S -0.937 ± 0.12, H -0.896 ± 0.3, K -0.999 ± 0.091, E -0.913 ± 0.098
I26: L -0.065 ± 0.037, E -0.789 ± 0.088, A -0.961 ± 0.068, H -1.07 ± 0.26, K -0.972 ± 0.065, P -0.925 ± 0.048, W -0.971 ± 0.076, M -0.232 ± 0.04, Y -0.657 ± 0.12, F -0.085 ± 0.031, T -0.88 ± 0.095, D -0.857 ± 0.18, N -0.719 ± 0.13, G -0.821 ± 0.044, R -0.951 ± 0.05, V -0.089 ± 0.033
Q38: F -0.059 ± 0.063, I 0.105 ± 0.06, C -0.027 ± 0.066, N -0.248 ± 0.073, T -0.038 ± 0.034, R -0.029 ± 0.031, A -0.009 ± 0.039, Y -0.012 ± 0.072, W -0.276 ± 0.068, S -0.046 ± 0.036, P -0.654 ± 0.061, K 0.005 ± 0.053, H 0.04 ± 0.056, G -0.05 ± 0.044, E -0.003 ± 0.055, V -0.033 ± 0.039, D -0.024 ± 0.058, L -0.072 ± 0.029, M -0.074 ± 0.041
W37: G -0.826 ± 0.043, A -0.857 ± 0.099, I -0.615 ± 0.095, E -0.928 ± 0.071, T -0.854 ± 0.08, S -0.805 ± 0.064, Q -0.699 ± 0.1, M -0.283 ± 0.061, D -0.865 ± 0.18, L -0.384 ± 0.03, F -0.156 ± 0.037, P -0.582 ± 0.045, C -0.516 ± 0.041, R -0.787 ± 0.058, N -0.771 ± 0.12, K -1.03 ± 0.095, V -0.78 ± 0.061
W36: I -0.159 ± 0.072, P -1.03 ± 0.11, A -0.092 ± 0.048, M 0.002 ± 0.032, H -0.054 ± 0.047, N -0.023 ± 0.038, L -0.029 ± 0.03, T 0.011 ± 0.04, V -0.052 ± 0.039, G -0.626 ± 0.055, K 0.045 ± 0.054, R -0.019 ± 0.031, S -0.1 ± 0.035, Y -0.054 ± 0.06, E -0.108 ± 0.04, C -0.003 ± 0.056, D -0.323 ± 0.028
I41: N -0.159 ± 0.068, E -0.478 ± 0.07, S -0.038 ± 0.04, Q -0.085 ± 0.06, F 0.079 ± 0.053, D -0.624 ± 0.065, A 0.016 ± 0.028, L -0.012 ± 0.037, V -0.055 ± 0.042, M -0.032 ± 0.049, H 0.022 ± 0.062, T -0.017 ± 0.049, R -0.028 ± 0.031, K -0.094 ± 0.052, P -1.01 ± 0.088, C -0.148 ± 0.052
L25: T -0.059 ± 0.055, Q -0.089 ± 0.064, Y -0.115 ± 0.07, S -0.01 ± 0.032, V -0.011 ± 0.03, W -0.098 ± 0.032, N -0.054 ± 0.068, P -0.126 ± 0.056
N42: R -0.054 ± 0.036, Q -0.084 ± 0.05, F -0.126 ± 0.055, M -0.046 ± 0.045, H 0 ± 0.041, C 0.014 ± 0.064, Y -0.082 ± 0.032, E 0 ± 0.042, W -0.148 ± 0.044, V -0.1 ± 0.039, S -0.021 ± 0.031, L -0.068 ± 0.037, G -0.042 ± 0.034, A -0.013 ± 0.049, K -0.093 ± 0.054, T -0.01 ± 0.051, P -0.473 ± 0.038, D -0.16 ± 0.063, I -0.196 ± 0.062
